Here are results for eleven molecules from patent publication US5877293, “CDR grafted anti-CEA antibodies and their production” (Celltech Therapeutics Limited, dated 1999).

Assay [1] addresses T1, Carcinoembryonic Antigen (CEA) (Homo sapiens (Human), UniProt P06731). In words: competition RIA against 125I-labelled murine or chimeric A5B7 IgG1 on CEA coated beads. As for the experimental part:
(§1) The competition RIA for anti-CEA activity involved competition of a series of ^125I-labelled murine or chimeric A5B7 IgG1 with humanised IgG or fragments thereof from culture supernatant samples for binding to CEA coated beads. Binding activity was determined by measuring bead associated radioactivity. The assay was calibrated by competition with standard preparations of chimeric or murine A5B7 IgG1 and plotting % bound cpm versus antibody concentration. Interpolated apparent A5B7 concentration of unknowns was normalised by dividing by the assembly assay result to give a specific activity. Finally specific activity was expressed as % relative potency by comparison to that obtained from a positive control chimeric A5B7 culture supernatant produced during the same experiment.
The relative potency of purified murine and chimeric A5B7 Fab' and F(ab')_2 fragments and murine IgG was investigated using the competition RIA. In addition, the direct binding ELISA was run in competition mode, by coincubation of the test specimen with murine A5B7 IgG1, for confirmation of relative potency.
The relative potencies of murine and chimeric IgGs and fragments were measured by the competition RIA.

The target of assay [2] is T1, Carcinoembryonic Antigen (CEA). In words: direct CEA binding ELISA, crude transient CHO supernatant.
For assay [3] the target is unchanged. In words: competition RIA on CEA coated beads, crude CHO supernatant. As for the experimental part: as §1
In order to assess the CEA binding activity of the grafted chains co-expression, experiments in a transient CHO cell system were first performed with chimeric partners. Thus pAL43 and pAL44 were co-transfected into the CHO L761 h cell line (27) together with the chimeric A5B7 heavy chain expression plasmid pBG7, while pAL45 and pAL46 were co-transfected with the light chain expression plasmid pBG11. Co-transfections of pBG7 and pHMC19 were also performed to provide a chimeric/chimeric standard against which to compare activity of the chimeric/grafted hybrids. […] Competition RIAs were also performed on the crude CHO cell supernatants for gL1/gH2 and gL2/gH2.

The target is the same in assay [4]. In words: direct CEA binding ELISA, crude transient CHO supernatant (pAL46 + pBG11).
Assay [5] shares this target. In words: direct CEA binding ELISA, crude transient CHO supernatant (pAL43 + pBG7).
The target is the same in assay [6]. The assay is described as follows: direct CEA binding ELISA, crude transient CHO supernatant (pAL44 + pBG7).
For assay [7] the target is unchanged. In words: direct CEA binding ELISA, crude transient CHO supernatant (pAL45 + pBG11).

B1: murine A5B7 F(ab')2 (other)
VH: EVKLVESGGGLVQPGGSLRLSCATSGFTFTDYYMNWVRQPPGKALEWLGFIGNKANGYTTEYSASVKGRFTISRDKSQSILYLQMNTLRAEDSATYYCTRDRGLRFYFDYWGQGTTLTVSS
VL: QTVLSQSPAILSASPGEKVTMTCRASSSVTYIHWYQQKPGSSPKSWIYATSNLASGVPARFSGSGSGTSYSLTISRVEAEDAATYYCQHWSSKPPTFGGGTKLEIKR
As for B1, the “% Relative Potency” value in assay [1] was 97%.

B2: Grafted A5B7 gL1/gH2 (antibody, V domains shown)
VH: EVQLLESGGGLVQPGGSLRLSCATSGFTFTDYYMNWVRQAPGKGLEWLGFIGNKANGYTTEYSASVKGRFTISRDKSKSTLYLQMNTLQAEDSAIYYCTRDRGLRFYFDYWGQGTLVTVSS
VL: QTVLTQSPSSLSVSVGDRVTITCRASSSVTYIHWYQQKPGLAPKSLIYATSNLASGVPSRFSGSGSGTDYTFTISSLQPEDIATYYCQHWSSKPPTFGQGTKVEVKR
Consider B2, for which the “binding relative to the double chimeric antibody” value in assay [2] is ~60%. Moreover, in assay [3], the Specific activity was 0.49 and the relative potency was 42%.

B3: chimeric A5B7 light chain / grafted heavy chain gH2 hybrid (antibody, V domains shown)
VH: EVQLLESGGGLVQPGGSLRLSCATSGFTFTDYYMNWVRQAPGKGLEWLGFIGNKANGYTTEYSASVKGRFTISRDKSKSTLYLQMNTLQAEDSAIYYCTRDRGLRFYFDYWGQGTLVTVSS
VL: QTVLSQSPAILSASPGEKVTMTCRASSSVTYIHWYQQKPGSSPKSWIYATSNLASGVPARFSGSGSGTSYSLTISRVEAEDAATYYCQHWSSKPPTFGGGTKLEIKR
On to B3, for which, in assay [4], the binding result is “binds”.

B4: grafted light chain gL1 / chimeric A5B7 heavy chain hybrid (antibody, V domains shown)
VH: EVKLVESGGGLVQPGGSLRLSCATSGFTFTDYYMNWVRQPPGKALEWLGFIGNKANGYTTEYSASVKGRFTISRDKSQSILYLQMNTLRAEDSATYYCTRDRGLRFYFDYWGQGTTLTVSS
VL: QTVLTQSPSSLSVSVGDRVTITCRASSSVTYIHWYQQKPGLAPKSLIYATSNLASGVPSRFSGSGSGTDYTFTISSLQPEDIATYYCQHWSSKPPTFGQGTKVEVKR
B4: the binding result in assay [5] is listed as “binds”.

B5: grafted light chain gL2 / chimeric A5B7 heavy chain hybrid (antibody, V domains shown)
VH: EVKLVESGGGLVQPGGSLRLSCATSGFTFTDYYMNWVRQPPGKALEWLGFIGNKANGYTTEYSASVKGRFTISRDKSQSILYLQMNTLRAEDSATYYCTRDRGLRFYFDYWGQGTTLTVSS
VL: QTVLTQSPSSLSVSVGDRVTMTCRASSSVTYIHWYQQKPGLAPKSWIYATSNLASGVPSRFSGSGSGTDYTLTISSLQPEDIATYYCQHWSSKPPTFGQGTKVEVKR
For B5, the binding result in assay [6] was “binds”.

B6: mouse monoclonal antibody A5B7 (murine A5B7 IgG1) (antibody, V domains shown)
VH: EVKLVESGGGLVQPGGSLRLSCATSGFTFTDYYMNWVRQPPGKALEWLGFIGNKANGYTTEYSASVKGRFTISRDKSQSILYLQMNTLRAEDSATYYCTRDRGLRFYFDYWGQGTTLTVSS
VL: QTVLSQSPAILSASPGEKVTMTCRASSSVTYIHWYQQKPGSSPKSWIYATSNLASGVPARFSGSGSGTSYSLTISRVEAEDAATYYCQHWSSKPPTFGGGTKLEIKR
With B6, in assay [1], the “% Relative Potency” value came to 93%.

B7: Grafted A5B7 gL2/gH2 (antibody, V domains shown)
VH: EVQLLESGGGLVQPGGSLRLSCATSGFTFTDYYMNWVRQAPGKGLEWLGFIGNKANGYTTEYSASVKGRFTISRDKSKSTLYLQMNTLQAEDSAIYYCTRDRGLRFYFDYWGQGTLVTVSS
VL: QTVLTQSPSSLSVSVGDRVTMTCRASSSVTYIHWYQQKPGLAPKSWIYATSNLASGVPSRFSGSGSGTDYTLTISSLQPEDIATYYCQHWSSKPPTFGQGTKVEVKR
Turning to B7, the “binding relative to the double chimeric antibody” value in assay [2] is ~60%. In assay [3], this molecule showed a Specific activity of 0.55 and a relative potency of 47%.

B8: chimeric A5B7 IgG1 (antibody, V domains shown)
VH: EVKLVESGGGLVQPGGSLRLSCATSGFTFTDYYMNWVRQPPGKALEWLGFIGNKANGYTTEYSASVKGRFTISRDKSQSILYLQMNTLRAEDSATYYCTRDRGLRFYFDYWGQGTTLTVSS
VL: QTVLSQSPAILSASPGEKVTMTCRASSSVTYIHWYQQKPGSSPKSWIYATSNLASGVPARFSGSGSGTSYSLTISRVEAEDAATYYCQHWSSKPPTFGGGTKLEIKR
For the molecule B8, the “% Relative Potency” value in assay [1] worked out at 100%. Moreover, in assay [3], the Specific activity worked out at 1.17 and the relative potency is 100%.

B9: chimeric A5B7 IgG4 Fab' delta cys (Fab, V domains shown)
VH: EVKLVESGGGLVQPGGSLRLSCATSGFTFTDYYMNWVRQPPGKALEWLGFIGNKANGYTTEYSASVKGRFTISRDKSQSILYLQMNTLRAEDSATYYCTRDRGLRFYFDYWGQGTTLTVSS
VL: QTVLSQSPAILSASPGEKVTMTCRASSSVTYIHWYQQKPGSSPKSWIYATSNLASGVPARFSGSGSGTSYSLTISRVEAEDAATYYCQHWSSKPPTFGGGTKLEIKR
In the case of B9, in assay [1], the “% Relative Potency” value is 20%.

B10: chimeric A5B7 light chain / grafted heavy chain gH1 hybrid (antibody, V domains shown)
VH: EVQLLESGGGLVQPGGSLRLSCATSGFTFTDYYMNWVRQAPGKGLEWLGFIGNKANGYTTEYSASVKGRFTISRDKSKSTLYLQMNGLQAEVSAIYYCTRDRGLRFYFDYWGQGTLVTVSS
VL: QTVLSQSPAILSASPGEKVTMTCRASSSVTYIHWYQQKPGSSPKSWIYATSNLASGVPARFSGSGSGTSYSLTISRVEAEDAATYYCQHWSSKPPTFGGGTKLEIKR
On to B10, for which the binding result in assay [7] is “binds”.

B11: murine A5B7 Fab' (Fab, V domains shown)
VH: EVKLVESGGGLVQPGGSLRLSCATSGFTFTDYYMNWVRQPPGKALEWLGFIGNKANGYTTEYSASVKGRFTISRDKSQSILYLQMNTLRAEDSATYYCTRDRGLRFYFDYWGQGTTLTVSS
VL: QTVLSQSPAILSASPGEKVTMTCRASSSVTYIHWYQQKPGSSPKSWIYATSNLASGVPARFSGSGSGTSYSLTISRVEAEDAATYYCQHWSSKPPTFGGGTKLEIKR
modifications: rendered monovalent by alkylation
Consider B11, for which, in assay [1], the “% Relative Potency” value worked out at 8%.
